Measurements as given in patent US20110002927A1 (DELENEX THERAPEUTICS, published 2011).

Tests used:
[1] = target: T1, recombinant human TNF-alpha (rhTNF-α) (human, UniProt P01375 77-233); assay: cell-based or functional assay
[2] = target: T1, recombinant human TNF-alpha (rhTNF-α); assay: method not stated (data not shown)

T1 sequence (P01375 77-233 limits assumed): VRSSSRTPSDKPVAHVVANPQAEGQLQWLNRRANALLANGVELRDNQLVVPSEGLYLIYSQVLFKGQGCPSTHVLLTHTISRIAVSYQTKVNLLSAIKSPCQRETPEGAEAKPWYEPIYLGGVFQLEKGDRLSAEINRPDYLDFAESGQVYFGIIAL

B1: ESBA105 (scFv)
scFv: DIVMTQSPSSLSASVGDRVTLTCTASQSVSNDVVWYQQRPGKAPKLLIYSAFNRYTGVPSRFSGRGYGTDFTLTISSLQPEDVAVYYCQQDYNSPRTFGQGTKLEVKRGGGGSGGGGSGGGGSSGGGSQVQLVQSGAEVKKPGASVKVSCTASGYTFTHYGMNWVRQAPGKGLEWMGWINTYTGEPTYADKFKDRFTFSLETSASTVYMELTSLTSDDTAVYYCARERGDAMDYWGQGTLVTVSS
notes: expressed in and purified from E. coli; 26 kDa; also called E105; anti-TNFalpha single-chain antibody (scFv) ESBA105
- EC50 in the L929 TNF-α assay (rescue of actinomycin D sensitized mouse L929 fibroblasts from rhTNF-α induced apoptosis, XTT) [1]: 0.0125 mg/L
- Kd [2]: 2.19 nM
- koff [2]: 0.0126 s⁻¹
- kon [2]: 5.72e+06 M⁻¹ s⁻¹
